Patent US20250011456A1 (VILLANELLE LIFE SCIENCE, published 2025)
Substitutions are numbered along the chain they refer to.

T1: Recombinant Human CD14/His Protein (B294801) (human, UniProt P08571 20-352, limits assumed)
T1 construct: Bought His-tagged recombinant human CD14; also called recombinant human CD14 antigen; CD14 antigen; not shown: histidine tag
T1 sequence (looked up): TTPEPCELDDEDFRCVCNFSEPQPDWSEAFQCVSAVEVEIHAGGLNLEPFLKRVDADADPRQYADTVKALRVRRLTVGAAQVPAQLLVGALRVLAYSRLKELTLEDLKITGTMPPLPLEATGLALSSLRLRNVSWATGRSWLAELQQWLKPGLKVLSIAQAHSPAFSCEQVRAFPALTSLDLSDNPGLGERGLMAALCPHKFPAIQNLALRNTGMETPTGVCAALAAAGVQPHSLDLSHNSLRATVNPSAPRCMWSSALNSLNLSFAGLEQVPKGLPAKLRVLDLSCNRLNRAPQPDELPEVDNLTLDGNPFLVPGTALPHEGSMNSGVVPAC

B1: Antibody No. MPDDAD001 (HU1127-hVH3/hVL3-1) (antibody, IgG1, V domains shown)
VH: QLQLQESGPGLVKPSETLSLTCTVSGGSISSDSAWNWIRQPPGKGLEWIGYISYSGSTSYNPSLKSRVTISRDTSKNQFSLKLSSVTAADTAVYYCVRGLRFAYWGQGTLVTVSS
VL: DIQLTQSPSSLSASVGDRVTITCRASESVDSYVDSFLHWYQQKPGKAPKLLIYRASNLQSGVPSRFSGSGSRTDFTLTISSLQPEDVATYYCQQSNEDPYTFGQGTKLEIK
notes: D6DD3D014 with the light chain PTM site NS (VL amino acids 34, 35) changed to DS; Tested as a recombinant antibody with hFc tag, 144 kDa
B2: Antibody No. MPDDAD002 (HU1127-hVH3/hVL3-2) (antibody, V domains shown)
VH: B1 VH
VL: B1 VL with D34S
notes: D6DD3D014 with the light chain PTM site NS (VL amino acids 34, 35) changed to SS; Tested as a recombinant antibody with hFc tag, 144 kDa
B3: Antibody No. MPDDAD003 (HU1127-hVH3/hVL3-3) (antibody, V domains shown)
VH: B1 VH
VL: B1 VL with D34T
notes: D6DD3D014 with the light chain PTM site NS (VL amino acids 34, 35) changed to TS; Tested as a recombinant antibody with hFc tag, 144 kDa
B4: Antibody No. MPDDAD005 (HU1127-hVH3/hVL3-5) (antibody, V domains shown)
VH: B1 VH
VL: B1 VL with D34Q
notes: D6DD3D014 with the light chain PTM site NS (VL amino acids 34, 35) changed to QS; Tested as a recombinant antibody with hFc tag, 144 kDa
B5: Antibody No. MPDDAD004 (HU1127-hVH3/hVL3-4) (antibody, V domains shown)
VH: B1 VH
VL: B1 VL with D34N, S35A
notes: D6DD3D014 with the light chain PTM site NS (VL amino acids 34, 35) changed to NA; Tested as a recombinant antibody with hFc tag, 144 kDa
B6: Antibody No. D6DD3D001 (HU1127-mVH/mVL) (antibody, human IgG1, kappa, V domains shown)
VH: DVQLQQSGPGLVKPSQSLSLTCTVTGYSITSDSAWNWIRQFPGNRLEWMGYISYSGSTSYNPSLKSRISITRDTSKNQFFLQLNSVTTEDTATYYCVRGLRFAYWGQGTLVTVSS
VL: DIVLTQSPASLAVSLGQRATISCRASESVDSYVNSFLHWYQQKPGQPPKLLIYRASNLQSGIPARFSGSGSRTDFTLTINPVEADDVATYYCQQSNEDPYTFGGGTKLEIKR
notes: Mouse variable domains of Atibuclimab on human IgG1 constant regions (hFc, 146 kDa); also called Original IgG1 antibody; mouse antibody
B7: Antibody No. D6DD3D003 (HU1127-hVH2/hVL1) (antibody, human IgG1, kappa)
heavy: not shown
light: EIVLTQSPATLSLSPGERATLSCRASESVDSYVNSFLHWYQQKPGQAPRLLIYRASNLQSGIPARFSGSGSRTDFTLTISSLEPEDVAVYYCQQSNEDPYTFGQGTKLEIKRTVAAPSVFIFPPSDEQLKSGTASVVCLLNNFYPREAKVQWKVDNALQSGNSQESVTEQDSKDSTYSLSSTLTLSKADYEKHKVYACEVTHQGLSSPVTKSFNRGEC
notes: Humanized IgG1 (hFc)
B8: Antibody No. D6DD3D005 (HU1127-hVH4/hVL1) (antibody, human IgG1, kappa)
heavy: not shown
light: B7 light
notes: Humanized IgG1 (hFc)
B9: Antibody No. D6DD3D004 (HU1127-hVH3/hVL1) (antibody, human IgG1, kappa)
heavy: not shown
light: B7 light
notes: Humanized IgG1 (hFc)
B10: Antibody No. D6DD3D002 (HU1127-hVH1/hVL1) (antibody, human IgG1, kappa, V domains shown)
VH: B1 VH with L2V, E16Q, P41H
VL: EIVLTQSPATLSLSPGERATLSCRASESVDSYVNSFLHWYQQKPGQAPRLLIYRASNLQSGIPARFSGSGSRTDFTLTISSLEPEDVAVYYCQQSNEDPYTFGQGTKLEIKR
notes: Humanized IgG1 (hFc)
B11: Antibody No. D6DD3D006 (HU1127-hVH5/hVL1) (antibody, human IgG1, kappa)
heavy: not shown
light: B7 light
notes: Humanized IgG1 (hFc)
B12: Antibody No. D6DD3D013 (HU1127-hVH2/hVL3) (antibody, human IgG1, kappa)
heavy: not shown
light: DIQLTQSPSSLSASVGDRVTITCRASESVDSYVNSFLHWYQQKPGKAPKLLIYRASNLQSGVPSRFSGSGSRTDFTLTISSLQPEDVATYYCQQSNEDPYTFGQGTKLEIKRTVAAPSVFIFPPSDEQLKSGTASVVCLLNNFYPREAKVQWKVDNALQSGNSQESVTEQDSKDSTYSLSSTLTLSKADYEKHKVYACEVTHQGLSSPVTKSFNRGEC
notes: Humanized IgG1 (hFc)
B13: Antibody No. D6DD3D016 (HU1127-hVH5/hVL3) (antibody, human IgG1, kappa)
heavy: not shown
light: B12 light
notes: Humanized IgG1 (hFc)
B14: Antibody No. D6DD3D014 (HU1127-hVH3/hVL3) (antibody, human IgG1, kappa)
heavy: not shown
light: B12 light
notes: Humanized IgG1 (hFc); Parent of the PTM-site-removed antibodies MPDDAD001-005
B15: Antibody No. D6DD3D012 (HU1127-hVH1/hVL3) (antibody, human IgG1, kappa, V domains shown)
VH: B1 VH with L2V, E16Q, P41H
VL: DIQLTQSPSSLSASVGDRVTITCRASESVDSYVNSFLHWYQQKPGKAPKLLIYRASNLQSGVPSRFSGSGSRTDFTLTISSLQPEDVATYYCQQSNEDPYTFGQGTKLEIKR
notes: Humanized IgG1 (hFc)
B16: Antibody No. D6DD3D015 (HU1127-hVH4/hVL3) (antibody, human IgG1, kappa)
heavy: not shown
light: B12 light
notes: Humanized IgG1 (hFc)
B17: Antibody No. D6DD3D008 (HU1127-hVH2/hVL2) (antibody, human IgG1, kappa)
heavy: not shown
light: DIVLTQSPDSLAVSLGERATINCRASESVDSYVNSFLHWYQQKPGQPPKLLIYRASNLQSGVPDRFSGSGSRTDFTLTISSLQAEDVAVYYCQQSNEDPYTFGQGTKLEIKRTVAAPSVFIFPPSDEQLKSGTASVVCLLNNFYPREAKVQWKVDNALQSGNSQESVTEQDSKDSTYSLSSTLTLSKADYEKHKVYACEVTHQGLSSPVTKSFNRGEC
notes: Humanized IgG1 (hFc)
B18: Antibody No. D6DD3D007 (HU1127-hVH1/hVL2) (antibody, human IgG1, kappa, V domains shown)
VH: B1 VH with L2V, E16Q, P41H
VL: DIVLTQSPDSLAVSLGERATINCRASESVDSYVNSFLHWYQQKPGQPPKLLIYRASNLQSGVPDRFSGSGSRTDFTLTISSLQAEDVAVYYCQQSNEDPYTFGQGTKLEIKR
notes: Humanized IgG1 (hFc)
B19: Antibody No. D6DD3D011 (HU1127-hVH5/hVL2) (antibody, human IgG1, kappa)
heavy: not shown
light: B17 light
notes: Humanized IgG1 (hFc)
B20: Antibody No. D6DD3D010 (HU1127-hVH4/hVL2) (antibody, human IgG1, kappa)
heavy: not shown
light: B17 light
notes: Humanized IgG1 (hFc)
B21: Antibody No. D6DD3D009 (HU1127-hVH3/hVL2) (antibody, human IgG1, kappa)
heavy: not shown
light: B17 light
notes: Humanized IgG1 (hFc)

Biological target: T1, Recombinant Human CD14/His Protein …
Experiment: SPR (Biacore 8K), antibody captured (1 ug/mL) on Protein A chip, CD14-His analyte 0.1953125-25 nM, 1:1 binding
Protocol: The Biacore 8K platform was used to test the kinetic and affinity properties of the antibody, operating according to system instructions and indications.
Results of Affinity Detection. The affinity of the six antibodies was measured at saturation concentration. […] Change factor is described above.

Change Factor (KD relative to mouse antibody D6DD3D001) | Kd [nM] | koff [s⁻¹] | kon [M⁻¹ s⁻¹] | Binder
8.66 | 7.48 | 0.00633 | 847000 | B1
3.24 | 2.8 | 0.00362 | 1.29e+06 | B2
2.34 | 2.02 | 0.0026 | 1.29e+06 | B3
5.65 | 4.88 | 0.00544 | 1.11e+06 | B4
6.86 | 5.93 | 0.0046 | 775000 | B5
1 | 0.864 | 0.00108 | 1.25e+06 | B6

Biological target: T1, Recombinant Human CD14/His Protein …
Experiment: SPR (Biacore 8K), antibody captured on Protein A chip, CD14-His analyte 0.78125-25 nM, 1:1 binding
Protocol: The Biacore 8K platform was used to test the kinetic and affinity properties of the antibody. The operation was carried out according to the system instructions and indications.
15 humanized antibodies (numbered D6DD3D002-D6DD3D0016) and 1 mouse antibody (number D6DD3D001) were tested. […] The capture concentration was 1 μg/mL. In Table 8-3, the change factor is the ratio of the equilibrium dissociation constant KD of the humanized to mouse antibody, and reflects the change in affinity after humanization.

Change Factor (KD relative to mouse antibody D6DD3D001) | Kd [nM] | koff [s⁻¹] | kon [M⁻¹ s⁻¹] | Binder
3.34 | 1.62 | 0.00295 | 1.82e+06 | B7
1.09 | 0.529 | 0.000798 | 1.51e+06 | B8
4.1 | 1.99 | 0.00326 | 1.64e+06 | B9
3.57 | 1.73 | 0.00292 | 1.69e+06 | B10
1.24 | 0.602 | 0.000862 | 1.43e+06 | B11
3.32 | 1.61 | 0.00282 | 1.76e+06 | B12
1.39 | 0.672 | 0.000904 | 1.35e+06 | B13
3.71 | 1.8 | 0.00318 | 1.77e+06 | B14
3.69 | 1.79 | 0.00293 | 1.64e+06 | B15
1.1 | 0.532 | 0.000843 | 1.59e+06 | B16
3.24 | 1.57 | 0.00329 | 2.09e+06 | B17
3.34 | 1.62 | 0.00342 | 2.11e+06 | B18
1.32 | 0.639 | 0.00109 | 1.71e+06 | B19
1.14 | 0.555 | 0.00105 | 1.9e+06 | B20
3.9 | 1.89 | 0.00379 | 2.01e+06 | B21
1 | 0.485 | 0.000858 | 1.77e+06 | B6
